Test results taken from the supplement of paper PMC7877785.
± gives the uncertainty stated by the source.

Experiment: self-splicing fitness, log relative to wild type (ln ratio); higher = more splicing; Tetrahymena group I intron in knt gene, E. coli kanamycin selection, DiMSum; sequences stand for … in CUCUCU…GGAGGGAAAAGUUAUCAGGCAUGCACCUGGUAGCUAGUCUUUAAACCAAUAGAUUGCAUCGGUUUAAAAGGCAAGACCGUCAAAUUGCGGGAAAGGGGUCAACAGCCGUUCAGUACCAAGUCUCAGGGGAAACUUUGAGAUGGCCUUGCAAAGGGUAUGGUAAUAAGCUGACGGACAUGGUCCUAACCACGCAGCCAAGUCCUAAGUCAACAGAUCUUCUGUUGAUAUGGAUGCAGUUCACAGACUAAAUGUCGGUCGGGGAAGAUGUAUUCUUCUCAUAAGAUAUAGUCGGACCUCUCCUUAAUGGGAGCUAGCGGAUGAAGUGAUGCAACACUGGAGCCGCUGGGAACUAAUUUGUAUGCGAAAGUAUAUUGAUUAGUUUUGGAGUACUCGUGGUCG
Summary of the method: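 Library with all eight P1ex-region intron nucleotides randomised, intron inside the knt kanamycin-resistance gene on pET-22b(+), in E. coli BL21(DE3). Cells grew overnight at 37°C or 30°C on LB agar with or without 25 μg/mL kanamycin (plus 100 μg/mL carbenicillin, 50 μM IPTG, 0.2% rhamnose), in six replicate transformations. Pooled colonies were amplicon-sequenced on Illumina HiSeq 2500. DiMSum fitness is the error-weighted combination of wild-type-normalised replicate fold changes, kanamycin versus none.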

Row | Sequence | self-splicing fitness (ln) (30 °C) | self-splicing fitness (ln) (37 °C)
1 | ACGGAGCAAUAUUACGAAGC | -4.24 ± 0.39 | -2.4 ± 0.18
2 | ACGGAGCAAUAUUACGAUAA | -3.89 ± 0.23 | -2.72 ± 0.21
3 | ACGGAGCAAUAUUACGAUCG | -0.961 ± 0.088 | -1.14 ± 0.14
4 | ACGGAGCAAUAUUACGAUUG | -3.04 ± 0.25 | -1.43 ± 0.22
5 | ACGGAGCAAUAUUACGCCCG |  | 0.0539 ± 0.32
6 | ACGGAGCAAUAUUACGCGAG | -2.86 ± 0.13 | -1.35 ± 0.13
7 | ACGGAGCAAUAUUACGGAUU | -3.94 ± 0.31 | -0.896 ± 0.16
8 | ACGGAGCAAUAUUACGGGCG | -2.12 ± 0.19 | -0.224 ± 0.19
9 | ACGGAGCAAUAUUACGGUAC | -4.95 ± 0.36 | -2.3 ± 0.22
10 | ACGGAGCAAUAUUACGGUCG | -2.48 ± 0.11 | -0.856 ± 0.11
11 | ACGGAGCAAUAUUACGGUGG | -3.07 ± 0.18 | -2.22 ± 0.26
12 | ACGGAGCAAUAUUACGGUUC | -4.29 ± 0.37 | -1.32 ± 0.22
13 | ACGGAGCAAUAUUACGUAAU | -3.61 ± 0.41 | -2.39 ± 0.48
14 | ACGGAGCAAUAUUACGUGAA | -2.95 ± 0.15 | -2.35 ± 0.19
15 | ACGGAGCAAUAUUACGUGGG | -3.99 ± 0.18 | -2.29 ± 0.15
16 | ACGGAGCAAUAUUACGUGUC | -4.54 ± 0.46 | -1.8 ± 0.18
17 | ACGUAGCAAUAUUACGAAGC |  | -1.96 ± 0.41
18 | ACGUAGCAAUAUUACGAAUA | -2.32 ± 0.17 | -1.46 ± 0.12
19 | ACGUAGCAAUAUUACGAGAA | -2.37 ± 0.26 | -3.02 ± 0.33
20 | ACGUAGCAAUAUUACGAGCU | -1.36 ± 0.12 | -1.06 ± 0.14
21 | ACGUAGCAAUAUUACGAUAC | -2.62 ± 0.12 | -2.26 ± 0.19
22 | ACGUAGCAAUAUUACGAUUG | -2.78 ± 0.11 | -1.99 ± 0.12
23 | ACGUAGCAAUAUUACGCAAA | -1.78 ± 0.21 | -2.42 ± 0.3
24 | ACGUAGCAAUAUUACGCAAU | -2.95 ± 0.17 | -1.53 ± 0.22
25 | ACGUAGCAAUAUUACGCAUG | -2.97 ± 0.15 | -0.981 ± 0.11
26 | ACGUAGCAAUAUUACGCAUU | -2.8 ± 0.17 | -0.657 ± 0.11

Row | Sequence | self-splicing fitness (ln) (30 °C) | self-splicing fitness (ln) (37 °C)
27 | ACGUAGCAAUAUUACGCCGC | -3.7 ± 0.46 | 
28 | ACGUAGCAAUAUUACGCGAU | -3.01 ± 0.14 | -1.5 ± 0.11
29 | ACGUAGCAAUAUUACGCGGA | -2.05 ± 0.18 | -0.895 ± 0.11
30 | ACGUAGCAAUAUUACGCGUA | -2.22 ± 0.17 | -1.74 ± 0.16
31 | ACGUAGCAAUAUUACGCUUU | -1.92 ± 0.058 | -1.11 ± 0.075
32 | ACGUAGCAAUAUUACGGAAC | -2.09 ± 0.24 | -2.14 ± 0.26
33 | ACGUAGCAAUAUUACGGAUU | -2.5 ± 0.14 | -1.8 ± 0.2
34 | ACGUAGCAAUAUUACGGCCG | -0.0843 ± 0.13 | -0.11 ± 0.19
35 | ACGUAGCAAUAUUACGGGAC | -4.43 ± 0.3 | -1.45 ± 0.16
36 | ACGUAGCAAUAUUACGGUAU | -2.02 ± 0.11 | -1.56 ± 0.12
37 | ACGUAGCAAUAUUACGGUGA | -2.3 ± 0.2 | -0.727 ± 0.15
38 | ACGUAGCAAUAUUACGUAUG | -2.75 ± 0.18 | -3.33 ± 0.42
39 | ACGUAGCAAUAUUACGUCGA | -3.67 ± 0.3 | -2.72 ± 0.24
40 | ACGUAGCAAUAUUACGUCUC | -2.84 ± 0.19 | -3.13 ± 0.32
41 | ACGUAGCAAUAUUACGUGCU | -1.94 ± 0.11 | -0.828 ± 0.12
42 | ACUAAGCAAUAUUACGAAAC | -3.55 ± 0.12 | -2.3 ± 0.16
43 | ACUAAGCAAUAUUACGACUG | -0.95 ± 0.065 | -0.652 ± 0.089
44 | ACUAAGCAAUAUUACGAGCC | -3.72 ± 0.4 | -1.62 ± 0.33
45 | ACUAAGCAAUAUUACGAUCA | -1.15 ± 0.072 | -0.58 ± 0.073
46 | ACUAAGCAAUAUUACGAUUU | -0.208 ± 0.062 | -0.0751 ± 0.09
47 | ACUAAGCAAUAUUACGCACC | -0.776 ± 0.12 | -0.198 ± 0.13
48 | ACUAAGCAAUAUUACGCAUU | -1.82 ± 0.11 | -0.321 ± 0.12
49 | ACUAAGCAAUAUUACGCCAU |  | -2.01 ± 0.29
50 | ACUAAGCAAUAUUACGCCCG | -0.735 ± 0.14 | 0.678 ± 0.19
51 | ACUAAGCAAUAUUACGCCGG | -1.03 ± 0.11 | -0.877 ± 0.18
52 | ACUAAGCAAUAUUACGCGGA | -1.96 ± 0.094 | -0.956 ± 0.083

Row | Sequence | self-splicing fitness (ln) (30 °C) | self-splicing fitness (ln) (37 °C)
53 | ACUAAGCAAUAUUACGCUCA | -0.894 ± 0.12 | -0.989 ± 0.14
54 | ACUAAGCAAUAUUACGCUCC | -1.24 ± 0.096 | -0.322 ± 0.13
55 | ACUAAGCAAUAUUACGGAGU | -3.72 ± 0.23 | -3.11 ± 0.21
56 | ACUAAGCAAUAUUACGGCCA | -0.942 ± 0.13 | 0.00289 ± 0.13
57 | ACUAAGCAAUAUUACGGUUG | -3.25 ± 0.2 | -2.5 ± 0.21
58 | ACUAAGCAAUAUUACGUACU | 0.135 ± 0.084 | 0.635 ± 0.12
59 | ACUAAGCAAUAUUACGUAUC | -2.91 ± 0.15 | -2.15 ± 0.19
60 | ACUAAGCAAUAUUACGUCAU | -3.64 ± 0.16 | -2.28 ± 0.15
61 | ACUAAGCAAUAUUACGUCUA | -1.45 ± 0.13 | -0.981 ± 0.12
62 | ACUAAGCAAUAUUACGUUUA | -3.27 ± 0.17 | -2.48 ± 0.14
63 | ACUAAGCAAUAUUACGUUUG | -3.62 ± 0.18 | -2.22 ± 0.17
64 | ACUCAGCAAUAUUACGAAUU | -0.96 ± 0.089 | -0.208 ± 0.085
65 | ACUCAGCAAUAUUACGACAC | -1.44 ± 0.12 | -0.127 ± 0.14
66 | ACUCAGCAAUAUUACGAGAU | -2.56 ± 0.11 | -1.81 ± 0.11
67 | ACUCAGCAAUAUUACGAGGG | -1.85 ± 0.08 | -1.41 ± 0.1
68 | ACUCAGCAAUAUUACGAUAU | -1.1 ± 0.081 | -0.759 ± 0.11
69 | ACUCAGCAAUAUUACGCCUU | -0.619 ± 0.053 | 0.491 ± 0.067
70 | ACUCAGCAAUAUUACGCGAA | -1.48 ± 0.061 | -0.686 ± 0.069
71 | ACUCAGCAAUAUUACGCGCG | -1.21 ± 0.12 | -0.47 ± 0.11
72 | ACUCAGCAAUAUUACGCGUA | -0.747 ± 0.11 | -0.395 ± 0.11
73 | ACUCAGCAAUAUUACGCGUC | -3.42 ± 0.19 | -2.06 ± 0.25
74 | ACUCAGCAAUAUUACGCUAC | -3.42 ± 0.27 | -2.63 ± 0.23
75 | ACUCAGCAAUAUUACGCUAU | -1.9 ± 0.061 | -0.569 ± 0.07
76 | ACUCAGCAAUAUUACGCUCC | -0.601 ± 0.12 | -0.848 ± 0.16
